Measured values as given in patent publication US20100028924A1 (RAPPAPORT FAMILY INSTITUTE RESEARCH IN THE MEDICAL SCIENCES, published 2010).

Biological target: rHDL-apoA-I (reconstituted discoidal HDL particles carrying apolipoprotein A-I)
Test: cell-based or functional assay

Binder | increase of cholesterol efflux from macrophages relative to rHDL-apoA-I alone [%]
wt rePON1-192K (enzyme) MAKLTALTLLGLGLALFDGQKSSFQTRFNVHREVTPVELPNCNLVKGVDNGSEDLEILPNGLAFISSGLKYPGIMSFDPDKSGKILLMDLNEEDPVVLELGITGNTLDISSFNPHGISTFTDEDNTVYLLVVNHPDSSSTVEVFKFQEEEKSLLHLKTIRHKLLPSVNDIVAVGPEHFYATNDHYFADPYLKSWEMHLGLAWSFVTYYSPNDVRVVAEGFDFANGINISPDGKYVYIAELLAHKIHVYEKHANWTLTPLKSLDFDTLVDNISVDPVTGDLWVGCHPNGMRIFYYDPKNPPGSEVLRIQDILSEEPKVTVVYAENGTVLQGSTVAAVYKGKLLIGTVFHKALYCEL | 93
rePON1-192R (enzyme) MAKLTALTLLGLGLALFDGQKSSFQTRFNVHREVTPVELPNCNLVKGVDNGSEDLEILPNGLAFISSGLKYPGIMSFDPDKSGKILLMDLNEEDPVVLELGITGNTLDISSFNPHGISTFTDEDNTVYLLVVNHPDSSSTVEVFKFQEEEKSLLHLKTIRHKLLPSVNDIVAVGPEHFYATNDHYFADPYLRSWEMHLGLAWSFVTYYSPNDVRVVAEGFDFANGINISPDGKYVYIAELLAHKIHVYEKHANWTLTPLKSLDFDTLVDNISVDPVTGDLWVGCHPNGMRIFYYDPKNPPGSEVLRIQDILSEEPKVTVVYAENGTVLQGSTVAAVYKGKLLIGTVFHKALYCEL | 67
rePON1-192Q (enzyme) MAKLTALTLLGLGLALFDGQKSSFQTRFNVHREVTPVELPNCNLVKGVDNGSEDLEILPNGLAFISSGLKYPGIMSFDPDKSGKILLMDLNEEDPVVLELGITGNTLDISSFNPHGISTFTDEDNTVYLLVVNHPDSSSTVEVFKFQEEEKSLLHLKTIRHKLLPSVNDIVAVGPEHFYATNDHYFADPYLQSWEMHLGLAWSFVTYYSPNDVRVVAEGFDFANGINISPDGKYVYIAELLAHKIHVYEKHANWTLTPLKSLDFDTLVDNISVDPVTGDLWVGCHPNGMRIFYYDPKNPPGSEVLRIQDILSEEPKVTVVYAENGTVLQGSTVAAVYKGKLLIGTVFHKALYCEL | 30
